T1: JNKK (Homo sapiens, UniProt P45985)
T1 sequence (P45985 1-399): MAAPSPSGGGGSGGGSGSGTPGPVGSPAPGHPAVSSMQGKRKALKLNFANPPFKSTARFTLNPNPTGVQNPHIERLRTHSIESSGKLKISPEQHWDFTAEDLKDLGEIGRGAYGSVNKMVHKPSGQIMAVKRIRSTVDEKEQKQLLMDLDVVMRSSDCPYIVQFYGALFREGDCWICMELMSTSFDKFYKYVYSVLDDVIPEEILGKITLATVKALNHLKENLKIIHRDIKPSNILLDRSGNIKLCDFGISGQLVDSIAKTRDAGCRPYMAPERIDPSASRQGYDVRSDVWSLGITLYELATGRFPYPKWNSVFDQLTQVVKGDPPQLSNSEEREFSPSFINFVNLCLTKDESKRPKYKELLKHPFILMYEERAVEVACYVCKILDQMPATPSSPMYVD

B1: MEKK 3: 626-amino acid MEK kinase protein, SEQ ID No. 10 (protein, listed as Mus musculus)
chain: MDEQEALDSIMKDLVALQMSRRTRLSGYETMKNKDTGHPNRQSDVRIKFEHNGERRIIAFSRPVRYEDVEHKVTTVFGQPLDLHYMNNELSILLKNQDDLDKAIDILDRSSSMKSLRILLLSQDRNHTSSSPHSGVSRQVRIKPSQSAGDINTIYQAPEPRSRHLSVSSQNPGRSSPPPGYVPERQQHIARQGSYTSINSEGEFIPETSEQCMLDPLSSAENSLSGSCQSLDRSADSPSFRKSQMSRARSFPDNRKECSDRETQLYDKGVKGGTYPRRYHVSVHHKDYNDGRRTFPRIRRHQGNLFTLVPSSRSLSTNGENMGVAVQYLDPRGRLRSADSENALTVQERNVPTKSPSAPINWRRGKLLGQGAFGRVYLCYDVDTGRELASKQVQFDPDSPETSKEVSALECEIQLLKNLQHERIVQYYGCLRDRAEKILTIFMEYMPGGSVKDQLKAYGALTESVTRKYTRQILEGMSYLHSNMIVHRDIKGANILRDSAGNVKLGDFGASKRLQTICMSGTGIRSVTGTPYWMSPEVISGEGYGRKADVWSLGCTVVEMLTEKPPWAEYEAMAAIFKIATQPTNPQLPSHISEHGRDFLRRIFVEARQRPSAEELLTHHFAQLVY
B2: MEKK 2: 619-amino acid MEK kinase protein, SEQ ID No. 6 / 8 (protein)
chain: MGYPYDVPDYASDDQQALNSIMQDLAVLHKPVGQHYLYKKPGKQNLHHQKNRMMFESNLNIEEEKRILQVTRPVKLEDLRSKSKIAFGQSMDLHYTNNELVIPLTTQDDLDKAVELLDRSIHMKSLKILLVVNGSTQATNLEPSPSPEDLNNTPLGAERKKRLSVVGPPNRDRSSPPPGYIPDILHQIARNGSFTSINSEGEFIPESMDQMLDPLSLSSPENSGSGSCPSLDSPLDGESYPKSRMPRAQSYPDNHQEFTDYDNPIFEKFGKGGTYPRRYHVSYHHQEYNDGRKTFPRARRTQGTSFRSPVSFSPTDHSLSTSSGSSVFTPEYDDSRIRRRGSDIDNPTLTVTDISPPSRSPRAPTNWRLGKLLGQGAFGRVYLCYDVDTGRELAVKQVQFNPESPETSKEVNALECEIQLLKNLLHERIVQYYGCLRDPQEKTLSIFMELSPGGSIKDQLKAYGALTENVTRKYTRQILEGVHYLHSNMIVHRDIKGANILRDSTGNIKLGDFGASKRLQTICLSGTGMKSVTGTPYWMSPEVISGEGYGRKADIWSVACTVVEMLTEKPPWAEFEAMAAIFKIATQPTNPKLPPHVSDYTRDFLKRIFVEAKLRPSAEELLRHMFVHYH

Assays:
c-Jun kinase = c-Jun kinase activation in transfected COS cells; assay type: cell-based; conditions: expression in COS cells, FIG. 22
From the text: COS cells were transfected with pCMV5 expression plasmid encoding no cDNA insert (control), full length MEKK4 or the truncated MEKK4 encoding only the catalytic kinase domain.

MEK 1 = target: T2, MEK 1 (Mus musculus, UniProt P31938); experiment: In vitro kinase assay of immunoprecipitated HA-tagged MEKK with recombinant MEK1; assay type: biochemical; conditions: 12CA5 immunoprecipitates
T2 construct: polyhistidine (N); made in house; host or cells: pRSETA vector
Description: (§1) MEKK 2 Phosphorylates Both MEK 1 and JNK Kinase in Vitro. HEK293 cells expressing MEKK 2 and 3 were lysed in !% Triton x-100, 0.5% Nonidet P-40, 20 mM Tris HCL, pH 7.5, 150 mM NaCl, 20 mM NaF, 0.2 mM sodium vanadate, 1 mM EDTA, […], 1 mM EGTA, 5 mM PMSF. Nuclei were removed by centrifugation at 15,000×g for 5 min. HA epitope-tagged MEKK2 and 3 were immunoprecipitated with the 12CA5 antibody recognizing the HA epitope-tag. The immunoprecipitates were washed twice in lysis buffer, twice in PAN (10 mM Pipes, pH 7.0, 100 mM NaCl, 20 ug/ml aprotinin), suspended in 20 mM Pipes, 10 mM MnCl2, 20 ug/ml aprotinin, and used in an in vitro kinase assay with 20-50 ng of recombinant MEK1 or JNKK as substrates and 20 uCi of [γ^32P]ATP. Reactions were terminated by the addition of Laemmli sample buffer, boiled, and proteins were resolved by SDS-10% PAGE.

c-Jun kinase (JNK) = experiment: JNK activity in HEK293 cells transfected with MEKK 2 or 3; assay type: cell-based; conditions: for selectivity in activating JNK versus p42/44 MAPK: plasmid DNAs titrated over a range of concentrations; for c-Jun kinase (JNK) activity: transient expression in HEK293 cells
Description: JNK activity was measured using GSTc-Jun1-79) coupled to glutathione Sepharose 4B. Cells transfected with MEKK2 or 3 and control transfected cells were lysed in 0.5% Nonidet P-40, 20 mM Tris HCl, pH 7.6, 0.25 M NaCl, 3 mM EDTA, 3 mM EGTA, 1 mM dithiothreitol, 1 mM PMSFm 2 mM sodium vanadate, 20 ug/ml aprotinin, and 5 ug/ml leupeptin. Nuclei were removed by centrifugation at 15,000×g for 10 min and the supernatants (25 ug of protein) were mixed with 10 ul of a slurry of GST c-Jun(1-79) Sepharos (3-5 ug of GST cJun(1-79). The mixture was rotated at 4° C. for 1 h, washed twice in lysis buffer and once in kinase buffer (20 mM Hepes, pH 7.5, 10 mM MgCl2, 20 mM β-glycerophosphate, 10 mM p-nitrophenyl phosphate, 1 mM dithiothreitol, 50 uM sodium vanadate). Beads were suspended in 40 ul of kinase assay buffer containing 10 uCi of [γ32P]ATP and incubated at 30° C. for 20 min. Reaction mixtures were added to Laemmli sample buffer, boiled, and phosphorylated proteins were resolved on SDS-10% polyacrylamide gels. The JNK activity also eluted early from a Mono Q column using a linear sodium chloride elution gradient. […] When JNK activity was assayed following fractionation by Mono Q ion exchange chromatography, 50 ul of each fraction was incubated with the GST cJun(1-79) beads.

JNKK = target: T1, JNKK; experiment: In vitro kinase assay of immunoprecipitated HA-tagged MEKK with recombinant JNKK; assay type: biochemical; conditions: 12CA5 immunoprecipitates
Description: as §1
Incubations were for 30 min at 30° C. in the presence of 50 uM ATP. GST-cJun (1-79) Sepharose beads were then added, and the mixture was rotated at 4° C. for 30 min. The beads were washed, suspended in 40 ul of c-Jun kinase assay buffer containing 20 uCi of [γ32P]ATP, and incubated for 15 min at 30° C. Reaction mixtures were added to Laemmli sample buffer, boiled, and phosphorylated proteins were resolved on SDS 10% PAGE.

[1] = test system: p42 and p44 forms of MAPK; experiment: Phosphorylation of p42 and p44 MAPK in COS cells transfected with MEKK 1 or MEKK 3; assay type: cell-based; conditions: forty-eight hours after transfection
Description: (§2) COS cells were transfected with the expression plasmid pCVM5 ligated to cDNA clones encoding either MEKK 1 or MEKK 3 protein, or a control pCVM5 plasmid lacking MEKK cDNA inserts. Forty-eight hours after transfection, the COS cells were lysed and the lysate fractionated on a Mono Q FPLC column using conditions described in Example 4. The fractions were analyzed for tyrosine phosphorylation of MAP kinase-like enzymes using the kinase assay described in Example 4.

p38 = p38 kinase activity in HEK293 cells transfected with MEKK 2 or 3; assay type: cell-based; conditions: immunoprecipitation and in vitro kinase assay
Description: The p38 kinase is activated by hyperosmotic conditions and recognizes the transcription factor ATF 2 as an in vitro substrate. Sorbitol treated (0.4M, 20 min) or control HEK293 cells were lysed in the same buffer as that used for immunoprecipitation of p38 using rabbit antiserum raised against the COOH terminal peptide sequence of p38. Immunoprecipitates were washed once in lysis buffer, once in assay buffer (25 mM Hepes, pH 7.4, 25 mM β-glycerophosphate, 25 mM […], 2 mM dithiothreitol, 0.1 mM sodium vanadate) resuspended, and used in an in vitro kinase assay with a recombinant NH2-terminal fragment of ATF 2 (20-50 ng). For analysis of p38 kinase activity from Mono Q FPLC fractions, 20 ul aliquots were mixed with kinase buffer containing 20-50 ng of recombinant ATF 2 and 10 uCi of [γ32P]PATP. Reactions were quenched in Laemmli sample buffer, boiled, and proteins were resolved using SDS 10% PAGE. […] Mono Q FPLC fractionation of lysates from MEKK 2 or 3 transfected HEK293 cells confirmed that p38 kinase activity was similar to that from control transfected cells. ATF 2 is also a substrate for JNK. Fractions 2-8 from cells transfected with MEKK 2 or 3, that contain immunoreactive JNK, have increased kinase activity toward ATF 2. This is a predicted result based on the ability of both MEKK 2 and 3 to stimulate JNK activity in HEK293 cells. […]

p38 MAPK = experiment: Tyrosine phosphorylation of p38 MAPK in COS cells transfected with MEKK 1 or MEKK 3; assay type: cell-based; conditions: forty-eight hours after transfection
Description: as §2

p42/44 MAPK = p42/44 MAPK activity in HEK293 cells transfected with MEKK 2 or 3; assay type: cell-based; conditions: transient expression in HEK293 cells
Description: MAPK activity following Mono Q FPLC fractionation was measured using the epidermal growth factor receptor […] peptide as a selective p42/44 MAPK substrate. Alternatively, for cells transfected with varying amounts of MEKK plasmids, MAPK activity was assayed after elution from DEAE Sephacel columns. […] Thus, even though the kinase domains are approximately 94% conserved, MEKK 2 and 3 differ in their selectivity for regulation of the JNK and p42/44^MAPK pathways. This was particularly evident for MEKK 3 at low plasmid concentrations where the p42/44^MAPK pathway was preferentially activated.

Molecule | activation of the c-Jun kinase pathway (c-Jun kinase) | phosphorylation of MEK 1 in vitro (MEK 1) | selectivity in activating JNK versus p42/44 MAPK (c-Jun kinase (JNK)) | c-Jun kinase (JNK) activity (c-Jun kinase (JNK)) | phosphorylation of JNKK in vitro (JNKK) | phosphorylation of p42 and p44 MAPK [1] | p38 kinase activity (p38) | phosphorylation of p38 MAPK (p38 MAPK) | p42/44 MAPK activity (p42/44 MAPK)
B1 | also activate the c-Jun kinase pathway | did not show measurable kinase activity toward MEK 1 or JNKK | greater selectivity for activating p42/44 MAPK relative to JNK | stimulation of c-Jun kinase (JNK) activity | did not show measurable kinase activity toward MEK 1 or JNKK | induces tyrosine phosphorylation | neither MEKK 2 nor MEKK 3 stimulated p38 kinase activity | induces tyrosine phosphorylation of p38 MAPK | stimulated p42/44^MAPK activity
B2 | also activate the c-Jun kinase pathway | clearly phosphorylates both MEK 1 and JNKK | greater selectivity for stimulation of the JNK pathway | stimulation of c-Jun kinase (JNK) activity | clearly phosphorylates both MEK 1 and JNKK | – | neither MEKK 2 nor MEKK 3 stimulated p38 kinase activity | – | stimulated p42/44^MAPK activity

Reference: patent US20080201790A1, “Method and product for regulating cell responsiveness to external signals” (priority 1993, published 2008)
